Source: publication PMC5770967, “Phosphorylation of the IDP KID Modulates Affinity for KIX by Increasing the Lifetime of the Complex” (Biophysical Journal, 2017)
Read-outs that look alike come from different tables or passages of the source. Non-standard residues stand in square brackets, D forms with d. No end group written: not given here. *: point of attachment. FITC = O=C1OC2(c3ccc(O)cc3Oc3cc(O)ccc32)c2ccc(NC(=S)*)cc21; pS = N[C@@H](COP(=O)(O)O)C(=O)O

Columns and labels:
KIX KIX [1] = biological target: KIX KIX (UniProt P45481); assay: NMR; settings: cited from earlier work
KIX KIX [2] = biological target: KIX KIX (UniProt P45481); settings: cited from earlier work
[3] = biological target: T1, KIX domain of CREB-binding protein (UniProt P45481 586-665); assay: fluorescence polarisation; fluorescence anisotropy equilibrium binding; 1 uM FITC-peptide with varying KIX, 30 min, 10 C; 100 mM sodium phosphate pH 7.5, 0.05% Tween; settings: both partners purified
[4] = biological target: T1, KIX domain of CREB-binding protein; assay: stopped-flow fluorescence association kinetics; pseudo-first-order, KIX in 10-fold or larger excess over FITC-peptide; double exponential fits; 10 C; 100 mM sodium phosphate pH 7.5, 0.05% Tween; settings: both partners purified
[5] = biological target: T1, KIX domain of CREB-binding protein; assay: stopped-flow fluorescence out-competition dissociation kinetics; KIX:FITC-(p)KID complex rapidly mixed with unlabeled cMybTAD; single exponentials; asymptote gives k_diss; 10 C; 100 mM sodium phosphate pH 7.5, 0.05% Tween; settings: both partners purified
[6] = biological target: T1, KIX domain of CREB-binding protein; assay: as above; settings: both partners purified; remark: listed apart in the source

T1 sequence (P45481 586-665): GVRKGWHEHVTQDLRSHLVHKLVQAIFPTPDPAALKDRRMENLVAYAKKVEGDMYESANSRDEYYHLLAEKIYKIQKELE
Chain of KIX KIX (P45481 586-665): as above
Chain of pKID29 KID (P16220 105-133): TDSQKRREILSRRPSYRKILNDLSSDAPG
Chain of pKID KID (P15337 119-146): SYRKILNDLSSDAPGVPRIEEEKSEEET

Kd [3] | k_ass,fast (fast phase of association) [4] | k_ass,slow (slow phase of association) [4] | half-life of the complex [5] | koff [6] | Molecule | Kd (KIX KIX [1]) | Kd (KIX KIX [2])
– | – | – | – | – | pKID KID (from UniProt P15337) | 1.3 µM | –
– | – | – | – | – | pKID29 KID (from UniProt P16220) | – | 8.3 µM
0.11 µM | 7.3e+06 ± 300000 M⁻¹ s⁻¹ | 24.2 ± 1.4 s⁻¹ | ~1 s | 0.81 ± 0.01 s⁻¹ | {FITC}-DSVTDSQKRREILSRRP[pS]YRKILNDLSSDAP (peptide, UniProt P15337-1 116-146, looked up, kinase inducible domain (KID) of CREB, UniProt P15337, residues 116-146 (31 residues), phosphorylated at S133; source: synthetic peptide, bought: Biomatik) [FITC-pKID (phosphorylated KID of CREB, residues 116-146, N-terminus labeled with FITC)] | – | –
29 ± 1 µM | 7.6e+06 ± 800000 M⁻¹ s⁻¹ | 21.2 ± 2.4 s⁻¹ | ~0.01 s | 66.3 ± 4.9 s⁻¹ | {FITC}-DSVTDSQKRREILSRRPSYRKILNDLSSDAP (peptide, UniProt P15337-1 116-146, looked up, also called unphosphorylated KID; source: synthetic peptide, bought: Biomatik) | – | –
12.3 ± 0.5 µM | 4.4e+06 ± 200000 M⁻¹ s⁻¹ | 17 ± 1 s⁻¹ | – | 35.6 ± 2.2 s⁻¹ | {FITC}-DSVTDSQKRREILSRRPEYRKILNDLSSDAP (peptide, UniProt P15337-1 116-146, looked up, kinase inducible domain (KID) of CREB, UniProt P15337, residues 116-146, with S133E; also called the phosphomimetic; source: synthetic peptide, bought: Biomatik) [FITC-KID-S133E (KID of CREB, residues 116-146, S133E, N-terminus labeled with FITC)] | – | –
